Like-named read-outs stand apart in the source and are kept apart here.
Assays:
[1] = molecular target: T1, panel of four distinct ZIKV strains (H/PF/2013; MR766, MRS-OPY and PV 10552); test: cell-based or functional assay
[2] = molecular target: T1, panel of four distinct ZIKV strains …; test: cell-based or functional assay; remark: listed apart in the source

B1: ZKA190 (antibody, V domains shown)
VH: QVQLVESGGGVVQPGRSLRLSCAASGFTFSKYGMHWVRQAPGKGLEWVAVISYEGSNKYYADSVKGRFTISRDNSKNTLYLQMNSLRAEDTAVYYCAKSGTQYYDTTGYEYRGLEYFGYWGQGTLVTVSS
VL: EIVLTQSPGTLSLSPGERATLSCRASQSVSSSYLAWYQQKRGQAPRLLIYDASSRATGIPDRFSGSGSGTDFTLTISRLEPEDFAVYYCQQYGRSRWTFGQGTKVEIK
- IC50, neutralization of four ZIKV strains on Vero cells (flow cytometry) [1]: 0.004 to 0.05 nM
- IC50, neutralization of four ZIKV strains on Vero cells (flow cytometry) [2]: 0.6 to 8 ng/mL

— patent US20200317755A1
